Experimental data as given in US20130237684A1 (RESEARCH CORPORATION TECHNOLOGIES, published 2013).
Substitutions are numbered along the chain they refer to. Square brackets hold non-standard residues; d marks the D form. Ends that are not written are not given here. * marks the point of attachment. hSer(lactone) = O=C1OCC[C@@H]1N*

Key:
Yeast ubiquitin (Sigma) = molecular target: T1, Yeast ubiquitin (Sigma) (yeast, UniProt P0CG63 1-76); assay: clone isolated by phage display selection on ubiquitin; listed as ubiquitin-binding monobody
T1 construct: mature; also called soluble ubiquitin; free ubiquitin
T1 sequence (P0CG63 1-76 limits assumed): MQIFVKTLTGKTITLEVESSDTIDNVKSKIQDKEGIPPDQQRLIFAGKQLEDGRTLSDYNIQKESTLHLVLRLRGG

[1] = molecular target: T2, C-terminal fragment of CD92 (FNfn10 cleaved in the CD loop) (human, UniProt P02751 1578-1631); assay: Trp fluorescence titrations, extrapolated to plain buffer (no urea, no glycerol)
T2 construct: Start at residue 43 is inferred from the N-terminal fragment ending at Asn42
T2 sequence (P02751 other isoform, or with tags, fused parts or gaps): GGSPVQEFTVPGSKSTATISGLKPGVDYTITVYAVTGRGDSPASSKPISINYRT
Method: (§1) A dissociation constant can be determined from a titration experiment where the concentration of the fluorophore is held constant and its corresponding binding partner is added. […] When measuring the dissociation constant, the concentration of the fluorophore has to be lower than or near the dissociation constant. To obtain a more accurate value, a series of titration experiments were performed at higher urea concentration, followed by subsequent extrapolation to compensate for the addition of urea.
(§2) To gain an extrapolation that excluded both glycerol and urea, a stepwise approach was taken that assumed that the two co-solutes had independent effects on the dissociation constant.

[2] = molecular target: the molecule itself; assay: self-association seen by NMR line broadening
[3] = molecular target: T2, C-terminal fragment of CD92 (FNfn10 …); assay: size exclusion chromatography of the mixed fragments of CD92
Method: Size exclusion chromatography was performed on the fragments of CD92 using a Sephadex75 gel filtration column.

[4] = molecular target: T2, C-terminal fragment of CD92 (FNfn10 …); assay: Trp fluorescence titrations, extrapolated to plain buffer in the reverse order
Method: as §1, §2

[5] = molecular target: T2, C-terminal fragment of CD92 (FNfn10 …); assay: Trp fluorescence titrations, extrapolated to no urea, 750 mM glycerol
Method: (§3) Proteins were dissolved to a final concentration of 500 nM in 20 mM sodium phosphate buffer at pH 6.0 containing 100 mM sodium chloride, 750 mM glycerol unless otherwise noted and various urea concentration between 1 M and 2.5 M. Urea concentration was determined using an Abbe refractometer (Spectronic Instruments) as described (Pace and Sholtz 1997). To obtain ([…] on the reconstitution at conditions without the addition of urea and glycerol, a series of C-terminal fragment-titration experiments with varying urea or glycerol concentrations, respectively, were performed. The dissociation constants in the absence of urea or glycerol were estimated by extrapolation based on experimental data
as §1

[6] = molecular target: T2, C-terminal fragment of CD92 (FNfn10 …); assay: Trp fluorescence titration, 750 mM glycerol, 1 M urea, about 500 nM N-terminal fragment
Method: as §3, §1

FN(C)-STAV11 = molecular target: T3, FN(C)-STAV11; assay: flow cytometry of mated yeast: surface C-FN3-STAV11 by anti-V5/FITC, captured secreted N-FN3 by anti-FLAG/PE
T3 construct: also called C-FN3-STAV11
T3 chain: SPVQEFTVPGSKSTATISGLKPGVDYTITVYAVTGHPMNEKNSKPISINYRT

B1: ubiquitin-binding monobody 212 (Fn3 with BC loop CWRRA and FG loop RWVGLAW), phage clone (designed binder, not shown: large carriers; small tags and cut ends)
chain: VSDVPRDLEVVAATPTSLLISWDAPCWRRAYYRITYGETGGNSPVQEFTVPGSKSTATISGLKPGVDYTITVYAVTGRWVGLAWSKPISINYRT
notes: also called clone 212
B1: binds (Yeast ubiquitin (Sigma)).

B2: ubiquitin-binding monobody 213 (Fn3 with BC loop CKHRR and FG loop FADLWWR), phage clone (designed binder, not shown: large carriers; small tags and cut ends)
chain: B1 chain with W27K, R28H, A30R, R78F, W79A, V80D, G81L, L82W, A83W, W84R
notes: also called clone 213
B2: binds (Yeast ubiquitin (Sigma)).

B3: ubiquitin-binding monobody 214 (Fn3 with BC loop CRRGR and FG loop RGFMWLS), phage clone (designed binder, not shown: large carriers; small tags and cut ends)
chain: B1 chain with W27R, R29G, A30R, W79G, V80F, G81M, L82W, A83L, W84S
notes: also called clone 214
B3: binds (Yeast ubiquitin (Sigma)).

B4: ubiquitin-binding monobody 215 (Fn3 with BC loop CNWRR and FG loop RAYRYRW), phage clone (designed binder, not shown: large carriers; small tags and cut ends)
chain: B1 chain with W27N, R28W, A30R, W79A, V80Y, G81R, L82Y, A83R
notes: also called clone 215
B4: binds (Yeast ubiquitin (Sigma)).

B5: N-terminal fragment of CD92 (D7KE9Q FNfn10 cleaved by cyanogen bromide at the GGMGG insertion in the CD loop) (other)
chain: VSDVPRKLQVVAATPTSLLISWDAPAVTVRYYRITYGETGGNGG[hSer(lactone)]
modifications: not fully specified
notes: also called mutant CD-loop fragment
For B5, the Kd [1] was 3.6 nM, the binding result [2] was “binds” and the Kd [3] was under 1000 nM. The Kd [4] was 3.9 nM, the Kd [5] was about 1.5 nM and the Kd [6] was about 10 nM.

B6: N-FN3 (residues 1-42) followed by the FLAG tag, secreted from yeast (other)
chain: VSDVPRDLEVVAATPTSLLISWDAPAVTVRYYRITYGETGGN
notes: also called wild-type N-terminal fragment; pGalsecFN(N)FLAG; not shown: FLAG tag
B6: binds (FN(C)-STAV11).
